Data as given in paper PMC7864924, “Structures of active-state orexin receptor 2 rationalize peptide and small-molecule agonist recognition and receptor activation” (Nature Communications, 2021).
Residue numbers refer to the chain shown, from its start.

B1: 8 (VHH)
VHH: QVQLVESGGGLVQAGGSLRLSCAASGFPVKHREMYWYRQAPGKEREWVAAIVSKGNVTEYADSVKGRFTISRDNAKNTVYLQMNSLKPEDTAVYYCNVKDYGWWNAHYDYWGQGTQVTVS
B2: 14 (VHH)
VHH: B1 VHH with E33H, V52A, K54N, N56H, V57R, W103F, W104Y, N105L, A106W
B3: 11 (VHH)
VHH: B1 VHH with K30A, Y35F, V52T, N56S, V57Q, E59A, N105T, H107V
B4: 5 (VHH)
VHH: QVQLVESGGGSVQAGGSLRLSCAASGYISGIEYLGWFRQAPGKEREGVAALYTFEGTTYYADSVKGRFTVSLDNAKNTVYLQMNSLKPEDTALYYCAAAKYGEWGPLWFHEYWYWGQGTQVTVS
B5: 2 (VHH)
VHH: QVQLVESGGGLVQAGGSLRLSCAASGFPVYRAFMAWYRQAPGKEREWVAAIHSTGWWTHYADSVKGRFTISRDNAKNTVYLQMNSLKPEDTAVYYCHVWVGYTYIGQGTQVTVS
B6: 4 (VHH)
VHH: QVQLVESGGGSVQAGGSLRLSCAASGAINHIWYLGWFRQAPGKEREGVAALYTWTGWTYYADSVKGRFTVSLDNAKNTVYLQMNSLKPEDTALYYCAAAYFGFASPLRARRYEYWGQGTQVTVS
B7: 1 (VHH)
VHH: QVQLVESGGGSVQAGGSLRLSCAASGWIQTITYLGWFRQAPGKEREGVAALVTNEGNTYYADSVKGRFTVSLDNAKNTVYLQMNSLKPEDTALYYCAAASWGFVTPLWYYYTYWGQGTQVTVS
B8: 10 (VHH)
VHH: QVQLVESGGGLVQAGGSLRLSCAASGFPVETRHMYWYRQAPGKEREWVAAIQSEGYLTHYADSVKGRFTISRDNAKNTVYLQMNSLKPEDTAVYYCNVKDIGWLWVHYDYWGQGTQVTVS
B9: 3 (VHH)
VHH: QVQLVESGGGLVQAGGSLRLSCAASGFPVNWKSMAWYRQAPGKEREWVAAISSFGWYTEYADSVKGRFTISRDNAKNTVYLQMNSLKPEDTAVYYCWVKVGATYYGQGTQVTVS
B10: 28 (VHH)
VHH: B9 VHH with N30V, S33T, A35W, F54Y, K65N, W97A, K99L, A102Y, Y105E
B11: 21 (VHH)
VHH: B9 VHH with N30K, S33T, F54W, W56L, W97L, K99Q, A102V, Y105H, Q107H
B12: 23 (VHH)
VHH: B9 VHH with N30V, S33Q, F54W, K87N, W97F, A102D, T103G, Y105T
B13: 29 (VHH)
VHH: B9 VHH with N30K, S33T, F54W, W56L, T91S, W97Y, K99G, T103G, Y105R
B14: 22 (VHH)
VHH: QVQLVESGGGLVQAGGSLRLSCAASGFPVYKHTMYWYRQAPGKEREWVAAINSTGAETAYADSVKGRFTISRDNAKNTVYLQMNSLKPEDTAVYYCEVYVGWFYHGQGTQVTVS
B15: 24 (VHH)
VHH: B14 VHH with Y30D, K31A, H32Y, T33V, N52A, T54Q, A56H, E57P, S63P, W102Y
B16: 25 (VHH)
VHH: B14 VHH with Y30N, K31N, T33V, N52S, T54Q, W102Y
B17: 26 (VHH)
VHH: B14 VHH with Y30A, K31H, H32F, T33V, N52S, A56Y, E57N, W102Y
B18: 6 (VHH)
VHH: QVQLVESGGGSVQAGGSLRLSCAASGNISAIGYLGWFRQAPGKEREGVAALVTWFGKTYYADSVKGRFTVSLDNAKNTVYLQMNSLKPEDTALYYCAAATYGNKNPLTDSYYSYWGQGTQVTVS
B19: 9 (VHH)
VHH: QVQLVESGGGLVQAGGSLRLSCAASGFPVKQHHMYWYRQAPGKEREWVAAIESGGKETRYADSVKGRFTISRDNAKNTVYLQMNSLKPEDTAVYYCNVKDWGWWWTNYDYWGQGTQVTVS
B20: 17 (VHH)
VHH: B19 VHH with K30V, Q31G, H32W, E52N, G54S, E57K, R59L, W101A, W104F, T106Y
B21: 16 (VHH)
VHH: B19 VHH with K30A, Q31R, H32W, E52N, G54T, K56D, E57M, R59L, W104Y, T106V
B22: 12 (VHH)
VHH: B19 VHH with K30Y, Q31T, H32A, H33Y, G54Q, K56Q, E57H, R59I, T106L
B23: 18 (VHH)
VHH: QVQLVESGGGLVQAGGSLRLSCAASGFPVNTAHMYWYRQAPGKEREWVAAIASSGDMTLYADSVKGRFTISRDNAKNTVYLQMNSLKPEDTAVYYCNVKDWGWWYVAYDYWGQGTQVTVS
B24: 19 (VHH)
VHH: QVQLVESGGGLVQAGGSLRLSCAASGFPVMENTMYWYRQAPGKEREWVAAIDSYGYYTYYADSVKGRFTISRDNAKNTVYLQMNSLKPEDTAVYYCNVKDVGDHWWFYDYWGQGTQVTVS
B25: 27 (VHH)
VHH: QVQLVESGGGLVQAGGSLRLSCAASGFPVTTRSMYWYRQAPGKEREWVAAIASNGRLTAYADSVKGRFTISRDNAKNTVYLQMNSLEPEDTAVYYCEVFVGYYYHGQGTQVTVS
B26: 20 (VHH)
VHH: QVQLVESGGGLVQAGGSLRLSCAASGFPVKTNKMAWYRQAPGKEREWVAAITSYGSWTVYADSVKGRFTISRDNAKNTVYLQMNSLKPEDTAVYYCAVWVGALYIGQGTQVTVS

Molecular target: engineered OX2R carrying an additional amino-terminal Avi-tag, biotinylated (Homo sapiens, UniProt O43614, residues V261–A291 deleted, biotin on the Avi-tag (BirA biotin-protein ligase))
Sequence (O43614 other isoform, or with tags, fused parts or gaps residues V261–A291 deleted | residues V261–A291 deleted): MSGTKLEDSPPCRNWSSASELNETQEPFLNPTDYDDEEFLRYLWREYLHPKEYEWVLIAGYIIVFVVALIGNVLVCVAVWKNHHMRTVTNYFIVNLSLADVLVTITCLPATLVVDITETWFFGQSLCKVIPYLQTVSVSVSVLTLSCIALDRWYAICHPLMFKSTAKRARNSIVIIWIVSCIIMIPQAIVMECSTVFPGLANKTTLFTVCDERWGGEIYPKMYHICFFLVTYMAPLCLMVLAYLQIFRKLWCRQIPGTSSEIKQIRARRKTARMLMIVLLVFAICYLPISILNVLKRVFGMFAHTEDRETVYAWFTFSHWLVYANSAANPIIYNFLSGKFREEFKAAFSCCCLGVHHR

binding result	Binder
binds	B1
binds	B2
binds	B3
binds	B4
binds	B5
binds	B6
binds	B7
binds	B8
binds	B9
binds	B10
binds	B11
binds	B12
binds	B13
binds	B14
binds	B15
binds	B16
binds	B17
binds	B18
binds	B19
binds	B20
binds	B21
binds	B22
binds	B23
binds	B24
binds	B25
binds	B26
